The target of the assay is Complement C3b, human, purified (human) (UniProt P01024). Kind of assay: SPR. A general note: Surface plasmon resonance follows binding to a sensor surface in real time, without labels.

The results in this text go back to article PMC10592561.

The term Kd denotes the free concentration of one partner at which half of the binding sites on the other are occupied at equilibrium, for simple one-to-one binding. Low readings indicate tighter binding, high ones weaker binding.

As to “Factor H CCP1-4, wild type (domain or fragment)”, the Kd was determined as 6.8 µM.
Under “Factor H CCP1-4 variant R166Q (domain or fragment)” stands 64.4 µM.
